Results published in patent US20250154265A1.

Key:
Assay in all cases: cell-based or functional assay
[1] = molecular target: human cMET on cells (Hs746T, H596, EBC-1) (human) (UniProt P08581)
[2] = molecular target: EGFR on H2073 cells (human) (UniProt P00533)
[3] = molecular target: EGFR L858R/T790M on H1975 cells (human) (UniProt P00533)
[4] = molecular target: WT EGFR on HEKn cells (human) (UniProt P00533)

Chain of human cMET on cells (Hs746T, H596, EBC-1) (human) (P08581 25-1390 limits assumed): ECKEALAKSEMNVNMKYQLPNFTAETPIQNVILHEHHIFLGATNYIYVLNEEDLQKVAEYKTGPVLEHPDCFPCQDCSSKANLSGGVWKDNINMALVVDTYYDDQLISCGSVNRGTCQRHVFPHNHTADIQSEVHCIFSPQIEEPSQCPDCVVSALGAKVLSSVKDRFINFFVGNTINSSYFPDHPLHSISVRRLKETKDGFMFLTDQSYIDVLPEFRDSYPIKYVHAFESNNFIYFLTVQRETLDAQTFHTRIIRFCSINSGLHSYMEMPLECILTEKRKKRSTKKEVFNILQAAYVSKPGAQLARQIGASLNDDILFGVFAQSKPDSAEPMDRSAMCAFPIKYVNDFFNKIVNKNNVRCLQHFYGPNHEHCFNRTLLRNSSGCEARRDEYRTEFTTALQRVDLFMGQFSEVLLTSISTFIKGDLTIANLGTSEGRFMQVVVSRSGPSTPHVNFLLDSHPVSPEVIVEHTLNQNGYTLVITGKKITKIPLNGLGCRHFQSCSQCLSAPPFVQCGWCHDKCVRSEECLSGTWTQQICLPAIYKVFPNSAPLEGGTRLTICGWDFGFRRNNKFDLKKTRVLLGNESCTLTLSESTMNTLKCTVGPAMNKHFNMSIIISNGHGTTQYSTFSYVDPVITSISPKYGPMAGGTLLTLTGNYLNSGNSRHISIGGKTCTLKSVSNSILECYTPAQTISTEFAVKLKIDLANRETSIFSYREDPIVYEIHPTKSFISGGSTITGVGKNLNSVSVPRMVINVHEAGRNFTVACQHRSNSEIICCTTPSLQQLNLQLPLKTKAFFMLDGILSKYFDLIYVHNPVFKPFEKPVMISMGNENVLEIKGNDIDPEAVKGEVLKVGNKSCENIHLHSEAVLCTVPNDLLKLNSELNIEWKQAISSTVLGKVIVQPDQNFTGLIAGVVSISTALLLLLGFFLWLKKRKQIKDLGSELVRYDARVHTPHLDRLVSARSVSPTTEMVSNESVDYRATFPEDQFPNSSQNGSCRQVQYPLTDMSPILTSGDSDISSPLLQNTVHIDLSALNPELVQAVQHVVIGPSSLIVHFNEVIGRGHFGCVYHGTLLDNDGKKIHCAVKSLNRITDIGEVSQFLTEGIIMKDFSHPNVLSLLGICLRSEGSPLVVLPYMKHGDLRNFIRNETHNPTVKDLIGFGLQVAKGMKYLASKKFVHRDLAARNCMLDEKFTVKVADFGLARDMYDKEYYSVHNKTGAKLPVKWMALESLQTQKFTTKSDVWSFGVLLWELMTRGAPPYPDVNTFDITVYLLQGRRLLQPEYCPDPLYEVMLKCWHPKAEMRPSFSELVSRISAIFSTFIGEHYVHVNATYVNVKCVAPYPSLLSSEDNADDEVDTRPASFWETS

In the case of JNJ-372 (bispecific antibody), the Imax (%), anti-proliferation on EBC-1 [1] is reported as 0%, the Imax (%), anti-proliferation on Hs746t [1] is reported as 0% and the IC50, anti-proliferation on H2073 [2] is reported as 3.46 nM. For the same substance, the Imax (%), anti-proliferation on H2073 [2] was 83%, the IC50, anti-proliferation on H1975 [3] was 0.23 nM and the Imax (%), anti-proliferation on H1975 [3] was 58.4%. The IC50, anti-proliferation on HEKn cells [4] was 5.7 nM and the Imax(%), anti-proliferation on HEKn cells [4] was 33.5%.

Substance LY3164530 (bispecific antibody) has an IC50, anti-proliferation on HEKn cells [4] of 0.24 nM and an Imax(%), anti-proliferation on HEKn cells [4] of 46.2%.
